Assay results: US7067277B1, “Chimeric G proteins and uses thereof” (H. Lundbeck A/S, priority 1999, dated 2006)
Positions count from the first letter of the chain named.

Assays:
Test in all cases: Calcium mobilization (FLIPR, Fluo-3) in transfected COS-7 cells
Format in all cases: cell-based
h 5HT1D = h 5HT1D (Homo sapiens, UniProt P28221); details: h 5HT1D + chimera in COS-7; agonist 5HT, max 100 μM
Procedure, shortened: (§1)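 Assay buffer was HBSS with 20 mM HEPES (pH 7.4), 0.1% BSA and 2.5 mM probenecid, and cells were loaded with 4 μM Fluo-3. Transfected COS-7 cells carried receptor and chimeric G protein cDNA at 1:1 or 8:1:1 ratios. Peak fluorescence change gave Hill-fitted curves.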

h α1A adr = molecular target: T1, h α1A adr (Homo sapiens, UniProt P35348); details: h α1A adr + chimera in COS-7; agonist NE, max 100 μM
T1 construct: expressed in transfected cells; host or cells: COS-7
T1 sequence (P35348 1-466): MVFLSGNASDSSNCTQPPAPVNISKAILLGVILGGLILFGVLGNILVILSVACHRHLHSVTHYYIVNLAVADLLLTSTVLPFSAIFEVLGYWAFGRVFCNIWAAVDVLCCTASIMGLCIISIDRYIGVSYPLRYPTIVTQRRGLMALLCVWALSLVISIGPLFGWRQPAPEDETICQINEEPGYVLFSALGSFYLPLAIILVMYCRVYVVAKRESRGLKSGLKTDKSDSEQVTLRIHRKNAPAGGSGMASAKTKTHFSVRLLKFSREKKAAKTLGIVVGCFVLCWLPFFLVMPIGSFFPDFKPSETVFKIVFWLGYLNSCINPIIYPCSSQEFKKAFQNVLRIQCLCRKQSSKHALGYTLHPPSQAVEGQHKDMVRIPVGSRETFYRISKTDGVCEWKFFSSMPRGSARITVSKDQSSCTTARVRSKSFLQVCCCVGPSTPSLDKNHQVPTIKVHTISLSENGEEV
Procedure, shortened: as §1

h 5HT4 = h 5HT4 (Homo sapiens, UniProt Q13639); details: h 5HT4 + chimera in COS-7; agonist 5HT, max 100 μM
Procedure, shortened: as §1

h kappa = molecular target: T2, h kappa (Homo sapiens, UniProt P41145); details: h kappa + chimera in COS-7; agonist U-69593, max 100 μM
T2 construct: expressed in transfected cells; host or cells: COS-7
Procedure, shortened: as §1

r GALR3 = molecular target: T3, r GALR3 (Rattus norvegicus, UniProt O88626); details: r GALR3 + chimera in COS-7; agonist GAL, max 10 μM
T3 sequence (O88626 1-370): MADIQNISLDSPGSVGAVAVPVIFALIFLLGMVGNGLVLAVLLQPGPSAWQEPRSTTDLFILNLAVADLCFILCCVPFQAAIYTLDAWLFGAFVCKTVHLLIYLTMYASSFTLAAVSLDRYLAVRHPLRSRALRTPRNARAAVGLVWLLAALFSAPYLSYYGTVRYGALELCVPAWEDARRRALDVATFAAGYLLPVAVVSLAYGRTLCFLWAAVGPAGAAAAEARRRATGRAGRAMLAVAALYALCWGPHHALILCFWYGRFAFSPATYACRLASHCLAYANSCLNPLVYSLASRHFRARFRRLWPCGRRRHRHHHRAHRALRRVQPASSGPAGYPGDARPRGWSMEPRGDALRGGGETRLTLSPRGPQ
Procedure, shortened: as §1

h 5HT7 = h 5HT7 (Homo sapiens, UniProt P34969); details: h 5HT7 + chimera in COS-7; agonist 5HT, max 100 μM
Procedure, shortened: as §1

h Y5 = molecular target: T4, h Y5 (Homo sapiens, UniProt Q15761); details: h Y5 + chimera in COS-7; agonist NPY, max 10 μM
T4 construct: expressed in transfected cells; host or cells: COS-7
T4 sequence (Q15761 1-445): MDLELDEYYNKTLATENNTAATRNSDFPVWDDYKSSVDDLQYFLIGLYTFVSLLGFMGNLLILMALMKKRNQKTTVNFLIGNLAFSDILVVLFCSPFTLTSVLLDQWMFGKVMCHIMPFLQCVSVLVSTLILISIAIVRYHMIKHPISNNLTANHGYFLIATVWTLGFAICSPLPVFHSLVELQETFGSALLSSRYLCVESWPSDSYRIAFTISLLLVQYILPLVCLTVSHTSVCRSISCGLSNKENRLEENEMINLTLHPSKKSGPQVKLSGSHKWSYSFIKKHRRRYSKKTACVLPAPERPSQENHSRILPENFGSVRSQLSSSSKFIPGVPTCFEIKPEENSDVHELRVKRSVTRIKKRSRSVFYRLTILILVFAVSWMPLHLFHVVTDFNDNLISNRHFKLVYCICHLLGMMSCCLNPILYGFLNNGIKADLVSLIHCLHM
Procedure, shortened: as §1

Chain of h 5HT1D (P28221 whole entry): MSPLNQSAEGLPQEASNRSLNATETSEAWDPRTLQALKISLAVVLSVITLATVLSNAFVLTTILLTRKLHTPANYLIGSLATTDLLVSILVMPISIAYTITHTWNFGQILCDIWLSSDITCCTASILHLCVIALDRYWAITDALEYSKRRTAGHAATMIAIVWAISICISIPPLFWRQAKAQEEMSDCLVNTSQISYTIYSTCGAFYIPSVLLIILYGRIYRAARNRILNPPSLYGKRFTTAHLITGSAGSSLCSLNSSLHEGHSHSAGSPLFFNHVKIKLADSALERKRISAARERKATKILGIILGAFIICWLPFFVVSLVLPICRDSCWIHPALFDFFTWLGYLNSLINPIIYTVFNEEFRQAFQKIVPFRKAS
Chain of h 5HT4 (Q13639 whole entry): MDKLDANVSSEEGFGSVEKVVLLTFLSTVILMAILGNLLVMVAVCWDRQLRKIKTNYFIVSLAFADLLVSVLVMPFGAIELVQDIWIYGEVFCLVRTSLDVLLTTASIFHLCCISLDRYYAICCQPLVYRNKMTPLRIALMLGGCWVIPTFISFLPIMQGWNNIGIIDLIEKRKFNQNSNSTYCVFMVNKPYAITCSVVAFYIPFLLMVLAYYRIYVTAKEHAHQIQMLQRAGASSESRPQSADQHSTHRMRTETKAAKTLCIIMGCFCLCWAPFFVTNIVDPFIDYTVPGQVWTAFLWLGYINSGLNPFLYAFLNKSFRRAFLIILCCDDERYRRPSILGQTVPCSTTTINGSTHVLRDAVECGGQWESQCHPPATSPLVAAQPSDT
Chain of h 5HT7 (P34969 whole entry): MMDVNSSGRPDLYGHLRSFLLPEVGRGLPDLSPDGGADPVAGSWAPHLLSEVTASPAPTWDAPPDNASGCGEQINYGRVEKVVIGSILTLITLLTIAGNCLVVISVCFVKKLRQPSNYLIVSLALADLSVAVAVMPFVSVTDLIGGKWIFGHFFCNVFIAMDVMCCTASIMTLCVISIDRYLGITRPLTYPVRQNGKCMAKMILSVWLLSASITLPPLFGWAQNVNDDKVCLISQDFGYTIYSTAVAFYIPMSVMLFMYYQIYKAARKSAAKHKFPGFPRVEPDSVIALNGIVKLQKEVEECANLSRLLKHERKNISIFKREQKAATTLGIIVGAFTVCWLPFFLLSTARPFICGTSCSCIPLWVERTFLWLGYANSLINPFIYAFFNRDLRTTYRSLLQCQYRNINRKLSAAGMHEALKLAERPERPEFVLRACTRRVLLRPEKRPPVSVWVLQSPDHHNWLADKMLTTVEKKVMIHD
T2 sequence (P41145 whole entry): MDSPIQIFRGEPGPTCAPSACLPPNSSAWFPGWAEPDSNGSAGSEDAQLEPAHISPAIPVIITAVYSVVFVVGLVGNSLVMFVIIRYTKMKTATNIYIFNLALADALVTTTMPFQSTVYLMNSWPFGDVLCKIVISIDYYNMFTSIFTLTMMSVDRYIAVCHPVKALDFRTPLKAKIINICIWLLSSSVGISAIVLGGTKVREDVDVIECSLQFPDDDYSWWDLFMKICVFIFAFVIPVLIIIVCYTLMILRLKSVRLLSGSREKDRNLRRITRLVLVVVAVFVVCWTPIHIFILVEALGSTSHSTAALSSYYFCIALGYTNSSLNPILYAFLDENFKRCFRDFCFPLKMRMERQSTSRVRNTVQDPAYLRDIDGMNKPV

B1: cGαq/z5: chimeric Gα subunit: C-terminal final 5 amino acids of C. elegans Gαq replaced with those of hGαz (SEQ ID NO: 1) (protein)
chain: MACCLSEEAREQKRINQEIEKQLQRDKRNARRELKLLLLGTGESGKSTFIKQMRIIHGQGYSEEDKRAHIRLVYQNVFMAIQSMIRAMDTLDIKFGNESEELQEKAAVVREVDFESVTSFEEPYVSYIKELWEDSGIQECYDRRREYQLTDSAKYYLSDLRRLAVPDYLPTEQDILRVRVPTTGIIEYPFDLEQIIFRMVDVGGQRSERRKWIHCFENVTSIMFLVALSEYDQVLVECDNENRMEESKALFRTIITYPWFTNSSVILFLNKKDLLEEKILYSHLADYFPEYDGPPRDPIAAREFILKMFVDLNPDADKIIYSHFTCATDTENIRFVFAAVKDTILQHNLKYIGLC
modifications: C. elegans
MAXIMAL SIGNAL (FLUORESCENCE UNITS) (h 5HT1D): 414 fluorescence units
MAXIMAL SIGNAL (FLUORESCENCE UNITS) (h α1A adr): 9816 fluorescence units
MAXIMAL SIGNAL (FLUORESCENCE UNITS) (h 5HT4): 1011 fluorescence units
MAXIMAL SIGNAL (FLUORESCENCE UNITS) (h kappa): 5975 fluorescence units
MAXIMAL SIGNAL (FLUORESCENCE UNITS) (r GALR3): 2298 fluorescence units
MAXIMAL SIGNAL (FLUORESCENCE UNITS) (h 5HT7): 166 fluorescence units
MAXIMAL SIGNAL (FLUORESCENCE UNITS) (h Y5): 5314 fluorescence units

B2: cGαq/z9: C. elegans Gαq with Gαz portion of the C-terminal tail extended to 9 amino acids (SEQ ID NO: 2) (protein)
chain: B1 chain with H347N
modifications: C. elegans
MAXIMAL SIGNAL (FLUORESCENCE UNITS) (h 5HT1D): 504 fluorescence units
MAXIMAL SIGNAL (FLUORESCENCE UNITS) (h α1A adr): 6597 fluorescence units
MAXIMAL SIGNAL (FLUORESCENCE UNITS) (h 5HT4): 1696 fluorescence units
MAXIMAL SIGNAL (FLUORESCENCE UNITS) (h kappa): 3472 fluorescence units
MAXIMAL SIGNAL (FLUORESCENCE UNITS) (r GALR3): 2971 fluorescence units
MAXIMAL SIGNAL (FLUORESCENCE UNITS) (h 5HT7): 129 fluorescence units
MAXIMAL SIGNAL (FLUORESCENCE UNITS) (h Y5): 6680 fluorescence units
